Reference: patent US20260232827A1, “ANTIBODY-DRUG CONJUGATES TARGETING NAPI2B AND METHODS OF USE” (Zymeworks BC Inc., priority 2023, published 2026)
Each block holds one substance with its values, some of them ahead of it.

Tests used:
[1] = molecular target: Fcγ receptor (FcγR) on the surface of immune effector cells; experiment: cell-based or functional assay
[2] = molecular target: Construct 1 (chimeric human NaPi2b, swap in NaPi2c in 239-259) (human); experiment: flow cytometry, transfected HEK293-6e cells, antibody 5 nM (footnote b)
[3] = molecular target: Construct 2 (chimeric human NaPi2b, swap in NaPi2c in 280-301) (human); experiment: as above
[4] = molecular target: Construct 3 (chimeric human NaPi2b, swap in NaPi2c in 304-321) (human); experiment: as above
[5] = molecular target: Construct 4 (chimeric human NaPi2b, swap in NaPi2c in 341-358) (human); experiment: as above
[6] = molecular target: Construct 5 (chimeric human NaPi2b, swap in NaPi2a in 304-348) (human); experiment: as above
[7] = molecular target: Construct 6 (human NaPi2b del 317-333) (human) (UniProt O95436); experiment: as above
[8] = molecular target: Construct 7 (human NaPi2b del 317-326) (human) (UniProt O95436); experiment: as above
[9] = molecular target: Full length human NaPi2b (sodium-dependent phosphate transporter 2B, SLC34A2) (human) (UniProt O95436); experiment: as above
[10] = molecular target: Construct 1 (chimeric human NaPi2b, swap in NaPi2c in 239-259) (human); experiment: flow cytometry, transfected HEK293-6e cells, antibody 50 nM (footnote b)
[11] = molecular target: Construct 2 (chimeric human NaPi2b, swap in NaPi2c in 280-301) (human); experiment: as above
[12] = molecular target: Construct 3 (chimeric human NaPi2b, swap in NaPi2c in 304-321) (human); experiment: as above
[13] = molecular target: Construct 4 (chimeric human NaPi2b, swap in NaPi2c in 341-358) (human); experiment: as above
[14] = molecular target: Construct 5 (chimeric human NaPi2b, swap in NaPi2a in 304-348) (human); experiment: as above
[15] = molecular target: Construct 6 (human NaPi2b del 317-333) (human) (UniProt O95436); experiment: as above
[16] = molecular target: Construct 7 (human NaPi2b del 317-326) (human) (UniProt O95436); experiment: as above
[17] = molecular target: Full length human NaPi2b (sodium-dependent phosphate transporter 2B, SLC34A2) (human) (UniProt O95436); experiment: as above
[18] = molecular target: Construct 1 (chimeric human NaPi2b, swap in NaPi2c in 239-259) (human); experiment: flow cytometry, transfected HEK293-6e cells, antibody 0.5 nM (footnote b)
[19] = molecular target: Construct 2 (chimeric human NaPi2b, swap in NaPi2c in 280-301) (human); experiment: as above
[20] = molecular target: Construct 3 (chimeric human NaPi2b, swap in NaPi2c in 304-321) (human); experiment: as above
[21] = molecular target: Construct 4 (chimeric human NaPi2b, swap in NaPi2c in 341-358) (human); experiment: as above
[22] = molecular target: Construct 5 (chimeric human NaPi2b, swap in NaPi2a in 304-348) (human); experiment: as above
[23] = molecular target: Construct 6 (human NaPi2b del 317-333) (human) (UniProt O95436); experiment: as above
[24] = molecular target: Construct 7 (human NaPi2b del 317-326) (human) (UniProt O95436); experiment: as above
[25] = molecular target: Full length human NaPi2b (sodium-dependent phosphate transporter 2B, SLC34A2) (human) (UniProt O95436); experiment: as above
[26] = molecular target: human sodium-dependent phosphate transporter 2B (NaPi2b) (human) (UniProt O95436); experiment: competition flow cytometry, human NaPi2b on HEK293-6e; row antibody unlabeled 100 ug/mL; competitor: labeled v23855 1 ug/mL
[27] = molecular target: human sodium-dependent phosphate transporter 2B (NaPi2b) (human) (UniProt O95436); experiment: competition flow cytometry, human NaPi2b on HEK293-6e; row antibody unlabeled 100 ug/mL; competitor: labeled v18992 (MX35) 1 ug/mL
[28] = molecular target: human sodium-dependent phosphate transporter 2B (NaPi2b) (human) (UniProt O95436); experiment: competition flow cytometry, human NaPi2b on HEK293-6e; row antibody unlabeled 100 ug/mL; competitor: labeled v18993 (lifastuzumab) 1 ug/mL
[29] = molecular target: human sodium-dependent phosphate transporter 2B (NaPi2b) (human) (UniProt O95436); experiment: competition flow cytometry, human NaPi2b on HEK293-6e; row antibody unlabeled 100 ug/mL; competitor: labeled v16955 (negative control) 1 ug/mL

Construct 1 (chimeric human NaPi2b, swap in NaPi2c in 239-259) (human), sequence (O95436 other isoform, or with tags, fused parts or gaps mutant): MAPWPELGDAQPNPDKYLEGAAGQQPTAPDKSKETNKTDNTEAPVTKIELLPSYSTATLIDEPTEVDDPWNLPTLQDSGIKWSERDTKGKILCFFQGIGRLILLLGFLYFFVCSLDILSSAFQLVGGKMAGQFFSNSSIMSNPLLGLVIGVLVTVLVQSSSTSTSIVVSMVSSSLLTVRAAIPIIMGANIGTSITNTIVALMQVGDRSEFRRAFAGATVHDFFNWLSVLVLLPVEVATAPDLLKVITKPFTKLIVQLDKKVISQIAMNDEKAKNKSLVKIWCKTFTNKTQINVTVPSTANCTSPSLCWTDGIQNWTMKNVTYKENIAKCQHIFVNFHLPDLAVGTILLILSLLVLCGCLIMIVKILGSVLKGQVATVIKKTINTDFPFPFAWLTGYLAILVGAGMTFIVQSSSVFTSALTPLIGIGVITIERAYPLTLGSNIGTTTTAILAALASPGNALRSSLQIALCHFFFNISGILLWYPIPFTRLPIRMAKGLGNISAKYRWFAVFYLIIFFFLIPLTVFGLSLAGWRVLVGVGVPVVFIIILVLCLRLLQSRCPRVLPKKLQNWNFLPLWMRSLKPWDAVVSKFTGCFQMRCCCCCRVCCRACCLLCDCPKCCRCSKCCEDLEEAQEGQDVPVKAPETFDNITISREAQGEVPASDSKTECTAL
Construct 7 (human NaPi2b del 317-326) (human), sequence (O95436 other isoform, or with tags, fused parts or gaps): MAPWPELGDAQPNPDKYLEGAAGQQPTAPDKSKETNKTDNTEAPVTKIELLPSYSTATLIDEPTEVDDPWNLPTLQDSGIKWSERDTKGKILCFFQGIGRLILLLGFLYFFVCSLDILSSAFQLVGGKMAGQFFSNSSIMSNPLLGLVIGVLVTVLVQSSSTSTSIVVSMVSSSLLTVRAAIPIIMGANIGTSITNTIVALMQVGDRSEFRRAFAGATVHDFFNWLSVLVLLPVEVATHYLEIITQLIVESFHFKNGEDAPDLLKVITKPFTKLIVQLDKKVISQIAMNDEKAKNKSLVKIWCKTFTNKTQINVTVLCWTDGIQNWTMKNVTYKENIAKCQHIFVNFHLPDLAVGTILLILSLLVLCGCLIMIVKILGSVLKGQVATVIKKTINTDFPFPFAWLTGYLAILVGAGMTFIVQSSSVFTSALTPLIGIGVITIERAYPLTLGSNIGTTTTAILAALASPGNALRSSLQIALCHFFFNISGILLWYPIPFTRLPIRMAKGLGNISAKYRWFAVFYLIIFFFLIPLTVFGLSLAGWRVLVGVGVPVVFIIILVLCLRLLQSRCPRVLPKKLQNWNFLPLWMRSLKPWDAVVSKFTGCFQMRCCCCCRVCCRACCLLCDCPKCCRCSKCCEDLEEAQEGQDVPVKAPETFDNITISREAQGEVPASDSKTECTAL
Construct 3 (chimeric human NaPi2b, swap in NaPi2c in 304-321) (human), sequence (O95436 other isoform, or with tags, fused parts or gaps mutant): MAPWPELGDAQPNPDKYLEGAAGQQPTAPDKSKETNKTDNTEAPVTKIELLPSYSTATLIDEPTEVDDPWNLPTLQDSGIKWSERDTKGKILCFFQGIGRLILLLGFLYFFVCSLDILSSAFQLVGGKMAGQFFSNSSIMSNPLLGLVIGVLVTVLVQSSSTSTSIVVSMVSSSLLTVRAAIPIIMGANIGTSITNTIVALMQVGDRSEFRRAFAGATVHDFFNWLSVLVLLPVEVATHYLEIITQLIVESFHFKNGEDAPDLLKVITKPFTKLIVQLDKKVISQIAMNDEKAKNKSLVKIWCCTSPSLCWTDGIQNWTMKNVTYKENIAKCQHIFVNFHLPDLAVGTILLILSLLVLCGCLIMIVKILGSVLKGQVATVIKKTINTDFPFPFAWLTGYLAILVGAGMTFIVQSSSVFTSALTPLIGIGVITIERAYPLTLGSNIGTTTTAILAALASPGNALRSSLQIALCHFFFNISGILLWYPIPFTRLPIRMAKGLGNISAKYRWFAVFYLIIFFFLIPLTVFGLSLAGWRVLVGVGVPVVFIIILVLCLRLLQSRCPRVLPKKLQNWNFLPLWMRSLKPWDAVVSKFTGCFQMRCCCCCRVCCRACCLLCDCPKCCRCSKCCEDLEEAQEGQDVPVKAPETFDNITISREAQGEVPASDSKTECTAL
Construct 2 (chimeric human NaPi2b, swap in NaPi2c in 280-301) (human), sequence (O95436 other isoform, or with tags, fused parts or gaps mutant): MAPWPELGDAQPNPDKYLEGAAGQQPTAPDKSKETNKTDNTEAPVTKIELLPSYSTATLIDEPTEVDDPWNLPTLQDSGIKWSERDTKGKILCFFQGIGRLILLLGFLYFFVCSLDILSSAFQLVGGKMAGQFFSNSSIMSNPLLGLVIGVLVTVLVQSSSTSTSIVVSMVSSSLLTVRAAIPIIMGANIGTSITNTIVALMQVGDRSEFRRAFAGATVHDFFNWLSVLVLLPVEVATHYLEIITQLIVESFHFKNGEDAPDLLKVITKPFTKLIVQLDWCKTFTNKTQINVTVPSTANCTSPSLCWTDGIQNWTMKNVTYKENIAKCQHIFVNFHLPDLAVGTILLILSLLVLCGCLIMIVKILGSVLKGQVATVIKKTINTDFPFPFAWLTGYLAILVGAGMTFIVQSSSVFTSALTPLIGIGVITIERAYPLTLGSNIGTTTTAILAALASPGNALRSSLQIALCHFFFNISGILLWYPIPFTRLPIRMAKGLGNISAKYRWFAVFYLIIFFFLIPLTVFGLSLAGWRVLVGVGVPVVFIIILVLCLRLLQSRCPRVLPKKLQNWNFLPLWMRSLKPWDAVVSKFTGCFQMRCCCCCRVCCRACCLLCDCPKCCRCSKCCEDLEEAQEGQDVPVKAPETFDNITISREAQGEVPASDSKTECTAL
Construct 6 (human NaPi2b del 317-333) (human), sequence (O95436 other isoform, or with tags, fused parts or gaps): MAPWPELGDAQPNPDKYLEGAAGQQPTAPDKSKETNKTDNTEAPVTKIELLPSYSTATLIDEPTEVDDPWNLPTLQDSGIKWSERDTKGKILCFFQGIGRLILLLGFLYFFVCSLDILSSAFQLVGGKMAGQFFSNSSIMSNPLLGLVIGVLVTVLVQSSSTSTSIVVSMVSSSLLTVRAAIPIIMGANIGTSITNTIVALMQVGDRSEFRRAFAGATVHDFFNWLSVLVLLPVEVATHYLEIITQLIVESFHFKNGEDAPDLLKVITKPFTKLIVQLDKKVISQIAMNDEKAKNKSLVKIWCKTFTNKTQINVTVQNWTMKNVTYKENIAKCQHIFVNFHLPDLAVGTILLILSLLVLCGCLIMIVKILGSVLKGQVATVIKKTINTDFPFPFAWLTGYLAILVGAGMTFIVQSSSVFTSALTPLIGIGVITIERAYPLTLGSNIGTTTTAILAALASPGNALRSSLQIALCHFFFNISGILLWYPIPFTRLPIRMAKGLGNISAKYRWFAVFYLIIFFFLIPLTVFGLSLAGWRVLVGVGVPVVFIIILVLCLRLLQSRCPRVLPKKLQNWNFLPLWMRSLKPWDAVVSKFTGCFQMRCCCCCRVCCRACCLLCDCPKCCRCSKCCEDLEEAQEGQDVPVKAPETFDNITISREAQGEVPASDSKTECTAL
Construct 4 (chimeric human NaPi2b, swap in NaPi2c in 341-358) (human), sequence (O95436 other isoform, or with tags, fused parts or gaps mutant): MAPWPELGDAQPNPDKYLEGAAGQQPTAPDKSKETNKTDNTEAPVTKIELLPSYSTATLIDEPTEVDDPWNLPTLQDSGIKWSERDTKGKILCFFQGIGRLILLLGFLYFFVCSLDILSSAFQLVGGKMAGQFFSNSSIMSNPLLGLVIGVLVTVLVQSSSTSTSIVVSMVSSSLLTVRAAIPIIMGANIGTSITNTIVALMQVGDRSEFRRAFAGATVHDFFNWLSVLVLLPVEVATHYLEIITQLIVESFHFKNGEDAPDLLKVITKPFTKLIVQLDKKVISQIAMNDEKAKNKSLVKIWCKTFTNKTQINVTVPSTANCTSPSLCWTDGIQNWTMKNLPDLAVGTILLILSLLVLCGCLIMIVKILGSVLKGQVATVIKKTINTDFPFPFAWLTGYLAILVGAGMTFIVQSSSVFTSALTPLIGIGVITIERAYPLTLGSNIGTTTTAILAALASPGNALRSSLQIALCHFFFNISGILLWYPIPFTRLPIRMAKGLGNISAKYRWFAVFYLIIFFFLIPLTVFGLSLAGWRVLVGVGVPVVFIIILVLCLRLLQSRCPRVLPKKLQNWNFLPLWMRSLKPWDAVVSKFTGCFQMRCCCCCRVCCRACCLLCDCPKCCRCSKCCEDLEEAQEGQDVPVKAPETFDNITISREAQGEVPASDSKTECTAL
human sodium-dependent phosphate transporter 2B (NaPi2b) (human), sequence (O95436 whole entry): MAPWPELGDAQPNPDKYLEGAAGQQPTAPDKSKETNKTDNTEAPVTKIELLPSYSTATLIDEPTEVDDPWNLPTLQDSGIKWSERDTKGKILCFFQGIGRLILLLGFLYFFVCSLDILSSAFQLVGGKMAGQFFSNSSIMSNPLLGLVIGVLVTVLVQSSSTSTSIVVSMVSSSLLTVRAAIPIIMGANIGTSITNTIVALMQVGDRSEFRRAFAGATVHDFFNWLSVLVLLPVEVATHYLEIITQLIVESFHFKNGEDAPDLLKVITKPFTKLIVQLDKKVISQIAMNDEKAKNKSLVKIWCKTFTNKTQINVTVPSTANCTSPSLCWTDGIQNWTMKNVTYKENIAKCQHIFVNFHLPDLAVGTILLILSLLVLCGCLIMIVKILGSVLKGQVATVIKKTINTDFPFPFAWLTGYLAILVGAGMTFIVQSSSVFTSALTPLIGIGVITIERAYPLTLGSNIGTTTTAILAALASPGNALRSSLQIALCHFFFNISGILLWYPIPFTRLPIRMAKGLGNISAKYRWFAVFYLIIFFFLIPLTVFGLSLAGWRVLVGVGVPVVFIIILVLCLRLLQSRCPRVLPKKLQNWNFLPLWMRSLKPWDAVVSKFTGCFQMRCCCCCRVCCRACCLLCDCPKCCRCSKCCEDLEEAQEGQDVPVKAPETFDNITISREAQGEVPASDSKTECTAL
Full length human NaPi2b (sodium-dependent phosphate transporter 2B, SLC34A2) (human), sequence (O95436 whole entry): as above

- % ADCC at 0.0192 nM (25 PBMCs:1 IGROV-1, 4 h) [1]: 5.96%
- % ADCC at 0.48 nM (25 PBMCs:1 IGROV-1, 4 h) [1]: 14%
- % ADCC at 12 nM (25 PBMCs:1 IGROV-1, 4 h) [1]: 14.4%
Substance: Lifastuzumab (v18993, wild-type Fc) (antibody)

- Background-Subtracted AF647 Mean Fluorescence Intensity [2]: 859 MFI
- Background-Subtracted AF647 Mean Fluorescence Intensity [3]: 222 MFI
- Background-Subtracted AF647 Mean Fluorescence Intensity [4]: 411 MFI
- Background-Subtracted AF647 Mean Fluorescence Intensity [5]: 250 MFI
- Background-Subtracted AF647 Mean Fluorescence Intensity [6]: 546 MFI
- Background-Subtracted AF647 Mean Fluorescence Intensity [7]: 283 MFI
- Background-Subtracted AF647 Mean Fluorescence Intensity [8]: 1 MFI
- Background-Subtracted AF647 Mean Fluorescence Intensity [9]: 97 MFI
- Background-Subtracted AF647 Mean Fluorescence Intensity [10]: 616 MFI
- Background-Subtracted AF647 Mean Fluorescence Intensity [11]: 230 MFI
- Background-Subtracted AF647 Mean Fluorescence Intensity [12]: 375 MFI
- Background-Subtracted AF647 Mean Fluorescence Intensity [13]: 511 MFI
- Background-Subtracted AF647 Mean Fluorescence Intensity [14]: 339 MFI
- Background-Subtracted AF647 Mean Fluorescence Intensity [15]: 291 MFI
- Background-Subtracted AF647 Mean Fluorescence Intensity [16]: 123 MFI
- Background-Subtracted AF647 Mean Fluorescence Intensity [17]: 107 MFI
- Background-Subtracted AF647 Mean Fluorescence Intensity [18]: 99 MFI
- Background-Subtracted AF647 Mean Fluorescence Intensity [19]: 70 MFI
- Background-Subtracted AF647 Mean Fluorescence Intensity [20]: 40 MFI
- Background-Subtracted AF647 Mean Fluorescence Intensity [21]: 146 MFI
- Background-Subtracted AF647 Mean Fluorescence Intensity [22]: 119 MFI
- Background-Subtracted AF647 Mean Fluorescence Intensity [23]: 666 MFI
- Background-Subtracted AF647 Mean Fluorescence Intensity [24]: 369 MFI
- Background-Subtracted AF647 Mean Fluorescence Intensity [25]: 596 MFI
Substance: reference anti-NaPi2a antibody (polyclonal rabbit anti-human SLC34A1; Atlas Biotechnologies Inc; Cat. No. HPA051255)

- % Inhibition vs. irrelevant mAb [26]: 0%
- % Inhibition vs. irrelevant mAb [27]: 0%
- % Inhibition vs. irrelevant mAb [28]: 0%
- % Inhibition vs. irrelevant mAb [29]: 0%
Substance: v16955 (Palivizumab, anti-RSV, negative control of Example 9) (antibody)

- ADCC EC50 (nM) (25 PBMCs:1 IGROV-1, 4-hour incubation) [1]: 0.035 nM
- ADCP EC50 (nM) (2 Macs:1 IGROV-1, 2-hour incubation) [1]: 0.043 nM
Substance: v18992 (Fc wild-type MX-35) (antibody)
